Patent US9951335B2, “Compositions and methods for treating otitis media and other conditions with inhibitors of CYLD” (Georgia State University Research Foundation, Inc., priority 2012, dated 2018)

How the values were obtained:
TGF-β-signalling [1] = experiment: SBE-Luc activity in TβR-deficient DR26 and R1B cells; assay type: cell-based, mink
Source text: Having identified CYLD as a negative regulator of TGF-β-signalling and lung fibrosis, we next sought to determine how CYLD inhibits TGF-β-signalling. TGF-β-ligands bind to a type II receptor (TβRII), which recruits and phosphorylates a type I receptor (TβRI). The activated TβRI then phosphorylates the Smad subgroup known as receptor-activated Smads (R-Smad), for example, Smad3, which can bind to Co-Smad Smad4. The R-Smad and Co-Smad complex then undergoes nuclear translocation for target gene regulation. To first determine at which level CYLD inhibits TGF-β-signalling, we took advantage of the available lung epithelial cell lines, DR26 and R1B that are derived from the WT Mv1Lu cells and lack functional […] TβRI, respectively. […] We next determined whether CYLD exerts its inhibitory effect on TGF-β-signalling at the level or downstream of TβRI by assessing the effects of siCYLD on WT-Smad3-induced SBE-Luc activity in TβRI-deficient R1B cells. […] To further determine whether CYLD inhibits TGF-β-signalling by likely targeting Smad3, we next evaluated the effect of CYLD knockdown in Smad3-deficient MEF cells.
A549, HeLa and HEK293 cells were maintained in the F12-K, minimal essential medium Eagle's with Earle's balanced salt solution (EMEM), and DMEM […]. […]

NF-κB = experiment: TNF-α-induced NF-κB-Luc activity; assay type: cell-based; settings: TNF-α 10 ng ml−1
Description: (§1) The expression plasmids Flag-WT-CYLD, HA-WT-CYLD, Flag-H/N-CYLD, HA-C/S-CYLD, Flag-WT-Smad3, C/A-TβRI, and the reporter plasmids SBE-Luc, PAI-1-Luc, and NF-κB-Luc were previously described. Flag-WT-Akt1, pRK5-HA-Ub WT, pRK5-HA-Ub K63, and pRK5-HA-Ub K48 were from Addgene, and K to R mutants of Akt were generated with WT-Akt1 using QuickChange XL Site-Directed Mutagenesis kit (Stratagene). All transient transfections were carried out using TransIT-LT1 reagent (Minis) or Lipofectamine (Invitrogen) according to manufacturers' instructions.

TGF-β-signalling [2] = experiment: TGF-β-induced SBE-promoter activity in mouse MEF cells; assay type: cell-based
Description: as §1

TGF-β-signalling [3] = experiment: TGF-β-induced SBE-promoter (SBE-Luc) activity in human epithelial cells; assay type: cell-based
Description: as §1

PAI-1 = experiment: TGF-β-induced PAI-1 expression (promoter activity, mRNA) in human cells; assay type: cell-based; settings: A549 and HeLa cells
Description: Total RNA was isolated using TRIzol reagent following the manufacturer's instructions. Synthesis of complementary DNA from total RNA was performed with MultiScribe reverse transcriptase. Real-time quantitative PCR was performed using an ABI 7500 Sequence Detection System (Applied Biosystems). Relative quantities of mRNAs were calculated using the comparative threshold cycle method and normalized using human and mouse glyceraldehyde-3-phosphate dehydrogenase as an endogenous control. The primer sequences for mouse COL1A2, COL3A1, CTGF and PAI-1, and human PAI-1, CHIP, and Smad3 are as follows. Mouse CTGF: 5′-[…]-3′ (SEQ ID NO:1) and 5′-[…]-3′ (SEQ ID NO:2); mouse COL1A2: 5′-[…]-3′ (SEQ ID NO:3) and 5′-[…]-3′ (SEQ ID NO:4); mouse COL3A1: 5′-[…]-3′ (SEQ ID NO:5) and 5′-[…]-3′ (SEQ ID NO:6); mouse PAI-1: 5′-[…]-3′ (SEQ ID NO:7) and 5′-[…]-3′ (SEQ ID NO:8); human PAI-1: 5′-[…]-3′ (SEQ ID NO:9) and 5′-[…]-3′ (SEQ ID NO:10); human CHIP: 5′-[…]-3′ (SEQ ID NO:11) and 5′-[…]-3′ (SEQ ID NO:12).
as §1

B1: siCYLD: RNA-mediated interference for downregulating CYLD expression using pSuper-CYLD, SEQ ID NO:13 (nucleic acid)
chain: GATCCCCGAGCTACTGAGGACAGAAATTCAAGAGATTTCTGTCCTCAGTAGCTCTTTTTGGAAA
modifications: expressed from pSuper vector
**Q.** Which “WT-Smad3-induced SBE-Luc activation” value (TGF-β-signalling [1]; TβRI-deficient R1B cells) does the source give for B1 here?
**A.** markedly enhanced

**Q.** What about the “constitutively active (C/A)-TβRI-induced SBE-Luc activity” value (TGF-β-signalling [1]; TβRII-deficient DR26 cells) of the same molecule?
**A.** markedly enhanced

**Q.** What about the “TNF-α-induced activation of NF-κB-Luc activity” value (NF-κB) of the same molecule?
**A.** greatly enhanced

**Q.** And the “SBE-Luc activity in the absence of Smad3” value (TGF-β-signalling [2]; Smad3-deficient MEF cells)?
**A.** did not enhance

**Q.** What about the “SBE-Luc activity in cells reconstituted with WT-Smad3” value (TGF-β-signalling [2]; Smad3-deficient MEF cells + WT-Smad3) of the same molecule?
**A.** markedly enhanced

**Q.** What about the “TGF-β-induced Smad-binding element (SBE)-dependent promoter activity” value (TGF-β-signalling [3]; A549 and HeLa cells) of the same molecule?
**A.** markedly enhanced

**Q.** What about the “TGF-β-induced SBE-dependent promoter activity, dose-dependent manner” value (TGF-β-signalling [3]; A549 cells transfected with various amounts) of the same molecule?
**A.** enhanced

**Q.** And the “TGF-β-induced SBE-Luc activity” value (TGF-β-signalling [3]; human primary bronchial epithelial NHBE cells)?
**A.** enhanced

**Q.** What about the “TGF-α-responsive PAI-1 promoter activity” value (PAI-1) of the same molecule?
**A.** markedly enhanced

**Q.** What about the “PAI-1 messenger RNA” value (PAI-1; TGF-β stimulated) of the same molecule?
**A.** markedly enhanced
